According to patent publication US20250066508A1 (SHENYANG SUNSHINE PHARMACEUTICAL, published 2025):

Key:
Rat MASP2-CCP1/2-SP-RQSA = Rat MASP2-CCP1/2-SP-RQSA (rat, UniProt Q9JJS8 298-685); test: ELISA, antigen coated 20 ng/well
Procedure: (§1) The enzyme-linked immunosorbent assay (ELISA) method used in the following examples is described as follows: the microplate was coated with the corresponding recombinant protein, and PBST containing 1% bovine serum albumin (PBST is phosphate buffer containing 0.05% Tween-20) was used to block the microplate. The antibody to be tested was serially diluted, then transferred to the above-mentioned microplate coated with recombinant protein, followed by incubation at room temperature for half an hour. After washing the plate, appropriately diluted HRP (Horseradish Peroxidase)-labeled goat anti-human antibody (Fc specific, purchased from Sigma) was added, followed by incubation at room temperature for half an hour. After washing the plate, 100 μl of chromogenic solution with TMB (3,3′,5,5′-Tetramethylbenzidine) was added as substrate to each well, followed by incubation at room temperature for 1 to 5 minutes. 50 μl stop solution (2M H₂SO₄) was added to stop the reaction. OD450 was read by a plate reader (SpectraMax 190). GraphPad Prism7 was used for graphing and data analyzing, and EC₅₀/IC₅₀ was calculated.

MASP2-CCP1/2 = target: T1, MASP2-CCP1/2 (human, UniProt O00187 298-443); test: ELISA, antigen coated 20 ng/well
T1 construct: also called CCP1/2 domain of MASP-2
Procedure: as §1

[1] = target: T2, Rhesus MASP2-CCP1/2-SP-RQSA (rhesus macaque, UniProt O00187 298-686 (human entry), limits assumed); test: ELISA, antigen coated 20 ng/well
T2 construct: also called rhesus macaque MASP-2
Procedure: as §1

[2] = target: Mouse MASP2-CCP1/2-SP-RQSA (mouse, UniProt Q91WP0 298-685); test: ELISA, antigen coated 20 ng/well
Procedure: as §1

MASP3-CCP1/2-SP-RQSA = target: T3, MASP3-CCP1/2-SP-RQSA (human); test: ELISA, plate coated with MASP3-CCP1/2-SP-RQSA (20 ng/well), HRP goat anti-human Fc, OD450
T3 construct: also called human MASP-3; human MASP3-CCP1/2-SP-RQSA
T3 chain: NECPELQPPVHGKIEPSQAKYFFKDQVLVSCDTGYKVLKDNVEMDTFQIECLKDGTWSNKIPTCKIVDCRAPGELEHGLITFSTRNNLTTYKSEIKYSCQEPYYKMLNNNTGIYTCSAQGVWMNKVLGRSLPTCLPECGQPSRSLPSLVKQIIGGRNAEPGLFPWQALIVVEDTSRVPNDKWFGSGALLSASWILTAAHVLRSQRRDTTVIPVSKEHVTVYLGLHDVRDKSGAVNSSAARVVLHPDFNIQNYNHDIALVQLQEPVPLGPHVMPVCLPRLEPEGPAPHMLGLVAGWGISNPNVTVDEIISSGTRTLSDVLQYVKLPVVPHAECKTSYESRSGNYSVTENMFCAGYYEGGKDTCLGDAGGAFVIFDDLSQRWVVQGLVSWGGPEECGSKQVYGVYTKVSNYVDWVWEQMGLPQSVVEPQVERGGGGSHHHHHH
Procedure: as §1

MASP2-SP-RQSA = target: T4, MASP2-SP-RQSA (human, UniProt O00187 445-686, limits assumed); test: ELISA, plate coated with MASP2-SP-RQSA (20 ng/well), HRP goat anti-human Fc, OD450
T4 construct: also called SP domain of MASP-2
Procedure: as §1

MASP1-CCP1/2-SP-RQSA = target: T5, MASP1-CCP1/2-SP-RQSA (human, UniProt P48740 299-699); test: ELISA, plate coated with MASP1-CCP1/2-SP-RQSA (20 ng/well), HRP goat anti-human Fc, OD450
T5 construct: also called human MASP-1; human MASP1-CCP1/2-SP-RQSA
T5 chain: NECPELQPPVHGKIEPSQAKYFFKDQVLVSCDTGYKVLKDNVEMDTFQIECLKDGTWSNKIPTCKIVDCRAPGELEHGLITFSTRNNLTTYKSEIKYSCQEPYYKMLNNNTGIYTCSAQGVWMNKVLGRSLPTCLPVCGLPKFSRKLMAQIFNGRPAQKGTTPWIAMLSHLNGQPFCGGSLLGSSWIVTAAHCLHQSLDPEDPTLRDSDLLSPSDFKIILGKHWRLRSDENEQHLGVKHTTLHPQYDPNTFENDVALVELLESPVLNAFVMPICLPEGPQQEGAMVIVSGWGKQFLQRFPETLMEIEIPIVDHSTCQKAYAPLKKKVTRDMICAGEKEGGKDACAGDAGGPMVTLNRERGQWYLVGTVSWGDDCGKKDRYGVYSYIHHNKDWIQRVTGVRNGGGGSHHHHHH
Procedure: as §1

MASP2-CCP1/2-SP-RKSA [3] = target: T6, MASP2-CCP1/2-SP-RKSA (human, UniProt O00187 298-686); test: ELISA, antigen coated 20 ng/well
Procedure: as §1
(§2) The smaller the EC₅₀ and the larger the Top, the stronger the binding effect is.

MASP2-CCP1/2-SP-RQ [4] = target: T7, MASP2-CCP1/2-SP-RQ (human, UniProt O00187 298-686); test: ELISA, antigen coated 20 ng/well
Procedure: as §1, §2

Human MASP-2 = Human MASP-2 (human, UniProt O00187 16-686); test: cell-based or functional assay
MASP2-CCP1/2-SP-RKSA [5] = target: T6, MASP2-CCP1/2-SP-RKSA; test: SPR, Biacore 8K, antibody captured on Protein A/G chip, antigen as analyte
Description: (§3) Here, the affinity between the above antibodies and MASP2-CCP1/2-SP-RKSA or MASP2-CCP1/2-SP-RQ was detected by Biacore 8K (GE healthcare). On Biacore 8K, a chip conjugated with Protein A/G was used to capture various antibodies, and then the above two recombinations were used as analytes (Analyte) to flow through the chip to obtain the binding-dissociation curve, and regeneration buffer was used to regenerate the chip and proceed to the next cycle; Biacore 8K Evaluation Software was used to analyze the data.

MASP2-CCP1/2-SP-RQ [6] = target: T7, MASP2-CCP1/2-SP-RQ; test: as above
Description: as §3

T7 sequence (O00187 other isoform, or with tags, fused parts or gaps limits assumed): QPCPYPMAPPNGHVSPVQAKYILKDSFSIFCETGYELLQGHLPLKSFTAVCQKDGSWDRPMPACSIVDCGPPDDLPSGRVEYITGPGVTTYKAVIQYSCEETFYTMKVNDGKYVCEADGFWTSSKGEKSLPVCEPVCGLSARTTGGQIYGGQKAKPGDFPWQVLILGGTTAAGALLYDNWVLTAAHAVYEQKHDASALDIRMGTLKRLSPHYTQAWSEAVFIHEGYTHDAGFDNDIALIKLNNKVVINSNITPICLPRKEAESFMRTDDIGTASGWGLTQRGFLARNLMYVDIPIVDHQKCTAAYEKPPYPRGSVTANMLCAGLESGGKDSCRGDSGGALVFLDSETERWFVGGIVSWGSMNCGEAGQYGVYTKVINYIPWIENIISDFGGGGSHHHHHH
T6 sequence (O00187 other isoform, or with tags, fused parts or gaps limits assumed): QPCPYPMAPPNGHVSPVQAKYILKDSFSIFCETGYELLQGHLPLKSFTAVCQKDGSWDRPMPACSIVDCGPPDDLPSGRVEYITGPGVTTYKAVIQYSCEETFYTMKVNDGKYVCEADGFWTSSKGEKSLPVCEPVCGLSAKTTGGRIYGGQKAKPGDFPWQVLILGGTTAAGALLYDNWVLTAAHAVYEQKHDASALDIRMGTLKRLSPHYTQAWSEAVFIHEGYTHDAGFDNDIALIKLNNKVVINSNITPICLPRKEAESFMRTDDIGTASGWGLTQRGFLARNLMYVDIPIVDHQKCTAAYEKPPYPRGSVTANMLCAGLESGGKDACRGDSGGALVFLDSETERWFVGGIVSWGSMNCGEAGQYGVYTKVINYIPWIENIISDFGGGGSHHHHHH
Human MASP-2, sequence (O00187 16-686 limits assumed): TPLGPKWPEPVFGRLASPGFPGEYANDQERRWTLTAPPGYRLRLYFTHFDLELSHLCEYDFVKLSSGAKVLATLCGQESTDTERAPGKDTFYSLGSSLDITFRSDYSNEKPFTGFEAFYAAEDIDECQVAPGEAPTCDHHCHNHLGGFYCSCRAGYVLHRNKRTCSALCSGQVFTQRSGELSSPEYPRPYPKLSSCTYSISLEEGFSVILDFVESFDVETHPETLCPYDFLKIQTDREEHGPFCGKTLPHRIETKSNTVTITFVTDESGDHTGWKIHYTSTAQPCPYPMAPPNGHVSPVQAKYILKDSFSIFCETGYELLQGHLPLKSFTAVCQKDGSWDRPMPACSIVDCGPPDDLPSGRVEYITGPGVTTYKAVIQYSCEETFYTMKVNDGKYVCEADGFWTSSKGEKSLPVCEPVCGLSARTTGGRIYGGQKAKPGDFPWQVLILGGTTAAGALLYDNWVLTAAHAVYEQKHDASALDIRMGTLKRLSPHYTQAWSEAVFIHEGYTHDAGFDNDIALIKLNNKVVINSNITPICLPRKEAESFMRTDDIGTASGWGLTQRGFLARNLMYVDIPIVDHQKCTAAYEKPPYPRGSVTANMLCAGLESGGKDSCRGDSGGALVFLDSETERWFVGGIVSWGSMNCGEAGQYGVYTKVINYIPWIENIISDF
Rat MASP2-CCP1/2-SP-RQSA, sequence (Q9JJS8 other isoform, or with tags, fused parts or gaps limits assumed): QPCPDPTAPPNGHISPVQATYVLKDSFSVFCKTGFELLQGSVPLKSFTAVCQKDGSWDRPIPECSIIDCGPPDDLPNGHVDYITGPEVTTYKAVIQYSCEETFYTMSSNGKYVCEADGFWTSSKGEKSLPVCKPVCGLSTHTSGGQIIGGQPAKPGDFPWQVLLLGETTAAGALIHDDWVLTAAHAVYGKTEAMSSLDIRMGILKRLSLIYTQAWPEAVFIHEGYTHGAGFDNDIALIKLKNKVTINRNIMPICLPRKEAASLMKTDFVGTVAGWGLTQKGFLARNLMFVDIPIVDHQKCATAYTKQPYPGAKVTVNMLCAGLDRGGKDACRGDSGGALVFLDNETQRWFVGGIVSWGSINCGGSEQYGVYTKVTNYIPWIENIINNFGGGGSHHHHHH
Mouse MASP2-CCP1/2-SP-RQSA, sequence (Q91WP0 other isoform, or with tags, fused parts or gaps limits assumed): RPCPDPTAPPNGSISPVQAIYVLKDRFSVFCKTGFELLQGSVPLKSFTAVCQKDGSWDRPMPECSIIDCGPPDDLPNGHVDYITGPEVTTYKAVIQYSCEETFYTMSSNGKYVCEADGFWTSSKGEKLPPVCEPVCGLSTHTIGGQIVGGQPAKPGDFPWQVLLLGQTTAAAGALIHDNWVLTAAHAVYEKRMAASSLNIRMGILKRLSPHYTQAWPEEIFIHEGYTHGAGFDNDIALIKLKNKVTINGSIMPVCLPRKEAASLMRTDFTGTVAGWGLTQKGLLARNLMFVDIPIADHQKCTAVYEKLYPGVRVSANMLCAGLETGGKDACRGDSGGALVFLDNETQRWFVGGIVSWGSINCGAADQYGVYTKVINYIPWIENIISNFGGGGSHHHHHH
T4 sequence (O00187 other isoform, or with tags, fused parts or gaps limits assumed): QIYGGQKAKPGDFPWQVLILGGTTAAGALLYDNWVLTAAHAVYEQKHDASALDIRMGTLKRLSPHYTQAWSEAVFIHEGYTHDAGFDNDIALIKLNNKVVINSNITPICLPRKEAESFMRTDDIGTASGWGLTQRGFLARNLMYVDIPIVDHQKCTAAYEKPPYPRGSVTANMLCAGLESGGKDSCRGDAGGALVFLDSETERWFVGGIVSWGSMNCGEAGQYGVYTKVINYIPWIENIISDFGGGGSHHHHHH
T2 sequence (O00187 other isoform, or with tags, fused parts or gaps limits assumed): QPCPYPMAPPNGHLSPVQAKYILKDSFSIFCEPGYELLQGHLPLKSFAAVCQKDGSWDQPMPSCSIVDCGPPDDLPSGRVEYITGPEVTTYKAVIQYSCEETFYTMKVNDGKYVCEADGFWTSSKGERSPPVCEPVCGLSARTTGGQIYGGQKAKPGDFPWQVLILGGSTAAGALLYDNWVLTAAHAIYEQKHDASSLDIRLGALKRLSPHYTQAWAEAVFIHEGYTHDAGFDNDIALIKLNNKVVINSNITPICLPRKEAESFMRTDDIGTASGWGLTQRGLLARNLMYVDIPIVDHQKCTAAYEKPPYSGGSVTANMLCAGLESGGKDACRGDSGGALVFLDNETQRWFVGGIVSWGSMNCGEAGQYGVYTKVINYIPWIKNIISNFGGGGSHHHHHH
T1 sequence (O00187 other isoform, or with tags, fused parts or gaps limits assumed): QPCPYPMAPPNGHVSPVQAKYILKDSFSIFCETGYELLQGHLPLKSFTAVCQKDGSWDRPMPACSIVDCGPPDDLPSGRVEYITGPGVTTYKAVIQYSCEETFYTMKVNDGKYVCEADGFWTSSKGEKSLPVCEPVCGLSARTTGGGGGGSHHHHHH

Binder | EC50 (Rat MASP2-CCP1/2-SP-RQSA) [nM] | EC50 (MASP2-CCP1/2) [nM] | EC50 [1] [nM] | EC50 [2] [nM] | binding result (MASP3-CCP1/2-SP-RQSA) | binding result (MASP2-SP-RQSA) | binding result (MASP1-CCP1/2-SP-RQSA) | EC50 (MASP2-CCP1/2-SP-RKSA [3]) [nM] | EC50 (MASP2-CCP1/2-SP-RQ [4]) [nM] | IC50 of C3 deposition on mannan-coated microplates (40 µg/ml mannan, 1% human plasma) (Human MASP-2) [nM] | IC50 of C3 deposition on mannan-coated microplates (100 µg/ml mannan, 1% human plasma) (Human MASP-2) [nM] | Kd (MASP2-CCP1/2-SP-RKSA [5]) [nM] | koff (MASP2-CCP1/2-SP-RKSA [5]) [s⁻¹] | kon (MASP2-CCP1/2-SP-RKSA [5]) [M⁻¹ s⁻¹] | Kd (MASP2-CCP1/2-SP-RQ [6]) [nM] | koff (MASP2-CCP1/2-SP-RQ [6]) [s⁻¹] | kon (MASP2-CCP1/2-SP-RQ [6]) [M⁻¹ s⁻¹]
169-IgG4 (antibody, V domains shown, expressed in HEK293F; also called preferred antibody) VH: QVQLQESGPGLVKPSETLSLTCTVSGGSISSSSYYWGWIRQPPGKGLEWIGSIYYSGSTYYNPSLKSRVTISVDTSKNQFSLKLSSVTAADTAVYYCARDRRGRFDPWGQGTMVTVSS VL: SYELMQPPSMSVSPGQTASITCSGDKLGDIYAYWYQQKPGQSPVLVIYQDNKRPSGIPERFSGSNSGNTATLTISGTQAMDEADYYCQAWESSTGVFGGGTKLTVLG | 0.231 | 0.146 | 0.136 | 0.19 | no binding (tested: 100 nM (Log(Ab nM) = 2)) | no binding (tested: 100 nM (Log(Ab nM) = 2)) | no binding (tested: 100 nM (Log(Ab nM) = 2)) | 0.106 | 0.136 | 0.0888 | 0.0996 | 38.6 | 0.00382 | 99200 | 4.82 | 0.00361 | 750000
Narsoplimab (antibody, human IgG4 S228P, lambda, V domains shown, also called positive control antibody; Control Narsoplimab) VH: QVTLKESGPVLVKPTETLTLTCTVSGFSLSRGKMGVSWIRQPPGKALEWLAHIFSSDEKSYRTSLKSRLTISKDTSKNQVVLTMTNMDPVDTATYYCARIRRGGIDYWGQGTLVTVSS VL: QPVLTQPPSLSVSPGQTASITCSGEKLGDKYAYWYQQKPGQSPVLVMYQDKQRPSGIPERFSGSNSGNTATLTISGTQAMDEADYYCQAWDSSTAVFGGGTKLTVLG | 0.455 |  |  | 0.169 | no binding (tested: 100 nM (Log(Ab nM) = 2)) |  |  |  |  |  |  |  |  |  |  |  | 
